This is an account of results in patent US20210122812A1 (Chugai, published 2021).

What is called Kd is a measure of binding affinity in units of concentration. A low value points to higher affinity.

The target in one test is T1, GC-hIgA-FLAG (human).
T1 construct: Recombinant human IgA with a FLAG tag, not treated with SPDP; also called unaggregated hIgA; unaggregated human IgA
Description: SPR (Biacore T200), antibody captured on Protein A/G on a CM5 chip, monomeric IgA injected as analyte, 37 C, running buffer pH 7.4 with 1.2 mM Ca; response normalized to capture ligand = 100 RU; analyte concentration not given [i]. As for the experimental part: The obtained antibodies were assessed for their binding to unaggregated hIgA and aggregated hIgA using Biacore™ T200 surface plasma resonance assay (GE Healthcare). The measurement was carried out using as a running buffer, 0.05% Tween 20®, 20 mmol/ACES, 150 mmol/l NaCl (pH 7.4 and pH 5.8) containing 3 μM or 1.2 mM CaCl₂.
After an adequate amount of recombinant Protein A/G (Thermo Scientific) was immobilized onto Sensor chip CM5 (GE Healthcare) by an amino coupling method, antibodies were allowed to bind onto the sensor chip. An appropriate concentration of hIgA (described in Example 1) was injected as an analyte to interact with antibodies on the sensor chip. Then, the sensor chip was regenerated by injecting 10 mmol/L Glycine-HCl, pH 1.5. The measurement was carried out at 37° C.
On the technique in general: Surface plasmon resonance follows binding to a sensor surface in real time, without labels.

Test [1] deals with T2, MRA-hIgA (human).
T2 construct: also called human IgA; recombinant of human IgA
T2 sequence (VH, as listed by the source): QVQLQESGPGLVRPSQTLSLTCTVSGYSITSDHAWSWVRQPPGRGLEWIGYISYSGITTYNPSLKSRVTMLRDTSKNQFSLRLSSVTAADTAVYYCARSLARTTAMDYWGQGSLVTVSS
Description: SPR (Biacore T200), antibody captured on Protein A/G, MRA-hIgA as analyte, 37 C, pH 5.8, 1.2 mM Ca, steady state affinity. How it is done: (§1) Using Biacore™ T200 surface plasma resonance assay (GE Healthcare), the obtained antibodies were assessed for their binding activity to human IgA (dissociation constant KD (M)). The measurement was carried out using as a running buffer 0.05% Tween 20® (polyoxyethylene (20) sorbitan monolaurate), 20 mmol/l ACES, 150 mmol/l NaCl (pH 7.4 or pH 5.8) containing 3 μM or 1.2 mM CaCl₂, or 0.05% Tween 20®, 20 mmol/l ACES, 150 mmol/l NaCl (pH 8.0) containing 0.1 μM or 10 mM CaCl₂.
(§2) After an adequate amount of recombinant Protein A/G (Thermo Scientific) was immobilized onto the Sensor chip CM5 (GE Healthcare) by an amino coupling method, antibodies were allowed to bind onto the sensor chip. An appropriate concentration of MRA-hIgA (described in (1-1)) was injected as an analyte to interact with antibodies on the sensor chip. Then, the sensor chip was regenerated by injecting 10 mmol/l glycine-HCl, pH 1.5. The measurement was carried out at 37° C. From the assay result, the dissociation constant KD (M) was calculated based on curve-fitting analysis and equilibrium constant analysis using Biacore™ T200 Evaluation Software (GE Healthcare).

The target in test [2] is T2, MRA-hIgA. As to the kind of experiment: SPR (Biacore T200), antibody captured on Protein A/G, MRA-hIgA as analyte, 37 C, pH 7.4, 1.2 mM Ca, 1:1 binding model. As for the experimental part:
as §1, §2

The target of test [3] is T2, MRA-hIgA. Description: SPR (Biacore T200), antibody captured on Protein A/G, MRA-hIgA as analyte, 37 C, pH 5.8, 3 uM Ca, steady state affinity. As for the experimental part: as §1, §2
For test [4], the target named is T2, MRA-hIgA. As to the kind of experiment: SPR (Biacore T200), antibody captured on Protein A/G, MRA-hIgA as analyte, 37 C, pH 7.4, 3 uM Ca, steady state affinity. How it is done:
as §1, §2

T1 sequence (VH, as listed by the source, chain 1 of 2): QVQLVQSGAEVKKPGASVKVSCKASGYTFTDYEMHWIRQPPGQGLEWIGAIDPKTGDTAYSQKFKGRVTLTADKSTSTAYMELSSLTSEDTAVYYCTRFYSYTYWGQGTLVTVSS
T1 sequence (VL, as listed by the source, chain 2 of 2): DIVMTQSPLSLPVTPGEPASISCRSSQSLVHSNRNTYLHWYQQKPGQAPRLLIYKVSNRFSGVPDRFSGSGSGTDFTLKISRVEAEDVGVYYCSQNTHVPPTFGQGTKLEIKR

B1: GA2-IgG1 (antibody, V domains shown)
VH: QVQLVQSGAEVKKPGSSVKVSCKASGGTFSSYAISWVRQAPGQGLEWMGGIIPIFGTANYAQKFQGRVTITADESTSTAYMELSSLRSEDTAVYYCARPRWETAISSDAFDIWGQGTMVTVSS
VL: DIQMTQSPSSLSASVGDRVTITCRASQSISDDLNWYQQKPGKAPKLLIYEASNLQSGVPSRFSGSGSGTDFTLTISSLQPEDFATYYCQQHSSSPLTFGQGTKVEIKR
notes: also called anti-hIgA antibody; anti-human IgA antibody
B1: the binding result with GC-hIgA-FLAG is on record as “binds”. Besides, the Kd came out at 4 µM with MRA-hIgA [1], 0.039 µM in the test with MRA-hIgA [2], 5 µM in the test with MRA-hIgA [3] and 6.7 µM with MRA-hIgA [4].
